According to the supplement of paper PMC10567573:

B1: FAM46D (parent)
chain: LELKFVSSLRRQFEFSVDSFQIVL
B2: HSP90AB1 (parent)
chain: QVANSAFVERVRKRGFEVVYMTEP

Variants of: B1
Experiment: protein stability index of a GFP-peptide fusion (GPS, HEK-293T) (PSI 1-6); higher = more stable
Conditions: c terminus: a fixed tail appended
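Further: lentivirally expressed fusions sorted by FACS into six bins by GFP to DsRed ratio, PSI derived from sequencing read proportions per bin multiplied by bin number.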

Protein stability index of substitutions, site by site:
E2: W 2.81

Variants of: B2
Experiment: as above
Conditions: c terminus: a fixed tail appended

Protein stability index of substitutions, site by site:
V8: T 2.52, I 1.88, K 2.54, Q 2.2, A 2.33, D 3.46, H 2.47, W 1.47, L 1.96, P 2.48, C 2.92, G 2.91, N 2.8, M 2.49, S 2.54, R 2.07, Y 2.7, F 1.8
S5: V 2.22, T 2.46, K 1.71, Y 2.17, F 1.76, R 1.77, W 1.97, M 2.2, L 2.12, D 2.59, H 2.29, N 2.26, G 2.02, A 2.24, P 2.44, E 2
A3: Y 2.35, C 2.01, H 2.38, F 1.87, L 1.85, E 2.69, S 2.74, G 2.28, P 2.69, M 2.26, Q 2.46, V 2.43, W 1.91, D 2.11, T 2.93, K 2.81, I 2.06
Q1: R 1.71, L 2.27, W 1.46, G 2.33, H 1.85, C 1.57, T 1.95, N 2.11, I 1.7, D 2.21, K 2.17, V 2.73, M 1.81, S 2.12, Y 3.79, A 2.29, E 1.91
A6: S 2.61, G 2.19, I 1.68, N 2.11, W 1.55, V 1.57, M 2.54, P 2.81, L 2.09, T 2.69, R 2.71, Y 1.55, C 1.55, F 1.73, D 2.67, E 2.86, K 2.32, H 2.43
E9: T 1.76, H 2.27, N 1.9, A 1.36, P 2.56, W 3.56, V 1.97, M 2.69, S 1.63, F 2.16, K 2.26, G 2.74, Y 2.32, L 3.24, C 2.07, D 2.56, Q 1.72, R 1.93
V2: L 2.01, A 2.87, D 3.15, C 1.74, F 2.47, R 2.6, I 2.52, S 2.69, N 2.75, Q 2.58, W 1.94, T 2.41, Y 2.3, M 2.18, H 2.49, G 2.59, P 2.85
N4: W 1.94, D 3.01, F 2.16, K 1.96, H 2.6, S 2.21, A 2.02, T 1.78, L 1.69, Q 2.72, P 2.03, Y 1.72, E 2.81, I 2.64, R 2.18
V11: A 2.62, E 3.58
R10: T 2.29, E 2.28, G 2.17, Q 2.17, Y 1.58, C 2.05, M 1.54, N 2.99, V 1.76, I 1.94, P 2.57, L 1.81, F 1.29, H 2.33, D 2.58, A 2.18
F7: E 3.48, H 3.24, V 2.84, W 1.99, R 2.75, Y 2.38, K 3.03, D 3.56, P 3.28, S 2.32, M 2.35, T 3.42
